The assay concerns the target T1, CHO-hu α11 (Homo sapiens, UniProt Q9UKX5).
T1 construct: expressed in transfected cells; host or cells: CHO-K1
The assay is described as follows: FACS antibody binding to CHO-K1 cells expressing human α11. The settings on record: Table 13, 79E3E3 variants. The protocol: 200,000 cells (wild-type CHO-K1 cells or CHO-K1 cells expressing human α11) were incubated with each antibody at desired concentrations in FACS buffer for 30 min at 4° C. Then, the cells were washed with FACS buffer and incubated with secondary antibody at 1:100 dilution for 30 minutes at 4° C. Cells were then washed and fixed with 1% PF A in PBS for 20 minutes at room temperature; washed again and read on a cytometer in FACS buffer.

T1 sequence (Q9UKX5 23-1188): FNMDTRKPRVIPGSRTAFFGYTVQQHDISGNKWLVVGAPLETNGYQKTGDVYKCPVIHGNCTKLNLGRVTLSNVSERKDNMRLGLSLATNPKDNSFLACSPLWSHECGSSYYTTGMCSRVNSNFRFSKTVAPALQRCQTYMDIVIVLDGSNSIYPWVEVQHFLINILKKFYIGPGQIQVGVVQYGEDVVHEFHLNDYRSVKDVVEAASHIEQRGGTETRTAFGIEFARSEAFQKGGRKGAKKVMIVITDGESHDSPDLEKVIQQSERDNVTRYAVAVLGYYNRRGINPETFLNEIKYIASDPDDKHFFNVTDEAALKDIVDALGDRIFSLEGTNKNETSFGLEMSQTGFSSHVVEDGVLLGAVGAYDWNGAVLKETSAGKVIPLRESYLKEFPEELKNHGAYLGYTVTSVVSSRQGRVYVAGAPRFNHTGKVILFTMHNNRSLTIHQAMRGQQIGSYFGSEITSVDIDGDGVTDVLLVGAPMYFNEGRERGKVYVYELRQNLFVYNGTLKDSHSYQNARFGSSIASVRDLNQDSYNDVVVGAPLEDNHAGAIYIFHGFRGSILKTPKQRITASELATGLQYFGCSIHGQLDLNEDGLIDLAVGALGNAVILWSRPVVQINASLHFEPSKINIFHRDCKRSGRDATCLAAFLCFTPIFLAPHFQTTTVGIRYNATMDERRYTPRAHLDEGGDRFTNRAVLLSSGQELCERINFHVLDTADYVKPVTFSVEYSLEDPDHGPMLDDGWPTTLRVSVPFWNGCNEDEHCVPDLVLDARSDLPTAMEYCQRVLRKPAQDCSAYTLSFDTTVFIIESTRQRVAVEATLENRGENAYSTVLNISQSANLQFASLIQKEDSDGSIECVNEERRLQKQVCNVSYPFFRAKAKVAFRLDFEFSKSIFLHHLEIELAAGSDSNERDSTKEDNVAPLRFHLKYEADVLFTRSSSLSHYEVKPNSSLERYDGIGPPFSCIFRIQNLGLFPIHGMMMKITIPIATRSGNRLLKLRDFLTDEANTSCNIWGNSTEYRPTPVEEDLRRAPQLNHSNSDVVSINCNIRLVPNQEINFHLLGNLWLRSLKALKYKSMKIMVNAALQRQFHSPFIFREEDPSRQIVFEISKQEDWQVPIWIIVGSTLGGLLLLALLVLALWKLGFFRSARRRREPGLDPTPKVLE
T1 sequence (P05556 21-798 partner): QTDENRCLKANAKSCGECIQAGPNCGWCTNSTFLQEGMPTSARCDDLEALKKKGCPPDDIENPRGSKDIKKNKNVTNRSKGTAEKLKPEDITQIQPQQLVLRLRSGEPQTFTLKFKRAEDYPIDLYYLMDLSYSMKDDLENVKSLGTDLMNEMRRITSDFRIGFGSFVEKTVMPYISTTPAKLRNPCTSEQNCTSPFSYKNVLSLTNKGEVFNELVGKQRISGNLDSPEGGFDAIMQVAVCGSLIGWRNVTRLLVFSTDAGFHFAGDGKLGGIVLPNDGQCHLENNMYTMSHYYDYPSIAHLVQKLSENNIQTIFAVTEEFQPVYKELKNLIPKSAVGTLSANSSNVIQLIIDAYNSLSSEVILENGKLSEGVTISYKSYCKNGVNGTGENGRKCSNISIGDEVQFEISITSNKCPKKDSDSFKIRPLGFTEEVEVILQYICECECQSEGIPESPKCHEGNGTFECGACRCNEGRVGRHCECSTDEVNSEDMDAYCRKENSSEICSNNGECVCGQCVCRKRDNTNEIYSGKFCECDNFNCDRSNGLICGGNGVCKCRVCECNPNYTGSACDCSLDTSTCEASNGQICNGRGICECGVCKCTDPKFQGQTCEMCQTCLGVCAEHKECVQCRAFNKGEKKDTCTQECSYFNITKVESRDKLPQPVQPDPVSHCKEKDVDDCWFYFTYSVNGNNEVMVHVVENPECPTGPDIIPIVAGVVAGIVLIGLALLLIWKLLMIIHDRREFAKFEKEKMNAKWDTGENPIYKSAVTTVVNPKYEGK

B1: A11BB133: 79E3E3 variant; VH SEQ ID NO: 4, VL SEQ ID NO: 21 (antibody, V domains shown)
VH: QIQLVQSGSELKKPGASVKVSCKASGYTFTDYAMNWVRQAPGQGLEWMGWINTQTGKPTYAQGFTGRFVFSLDTSVSTAYLQISSLKAEDTAVYYCTRLGTGNTKGFAYWGQGTLVTVSS
VL: DIQITQSPSSLSASVGDRVTITCKSSQSLLYSENNQDYLAWYQQKPGKVPKLLIYGASNRHTGVPSRFSGSGSGTDFTLTISSLQPEDVATYYCEQTYRYPFTFGQGTKLEIK
With B1, the EC50 was 5.13 nM.

B2: A11BB140: 79E3E3 variant; VH SEQ ID NO: 7, VL SEQ ID NO: 22 (antibody, V domains shown)
VH: QIQLVQSGAEVKKPGSSVKVSCKASGYTFTDYAMNWVRQAPGQGLEWMGWINTQTGKPTYAQKFQGRVTFTLDESTSTTYMELSSLRSEDTAVYYCTRLGTGNTKGFAYWGQGTLVTVSS
VL: DIQMTQSPSSLSASVGDRVTITCKSSQSLLYSENNQDYLAWYQQKPGKVPKLLIYGASNRHTGVPSRFSGSGSGTDFTLTISSLQPEDVATYYCEQTYRYPFTFGQGTKLEIK
The molecule B2 had a concentration for a half-maximal effect (EC50) of 2.5 nM.

B3: A11BB136: 79E3E3 variant; VH SEQ ID NO: 14, VL SEQ ID NO: 22 (antibody, V domains shown)
VH: QIQLVQSGSELKKPGASVKVSCKASGYTFTDYAMNWVRQAPGQGLEWMGWINTQTGKPTYAQGFTGRFVFSLDTSVSTAYLQISSLKAEDTAVYFCTRLGTGNTKGFAYWGQGTLVTVSS
VL: DIQMTQSPSSLSASVGDRVTITCKSSQSLLYSENNQDYLAWYQQKPGKVPKLLIYGASNRHTGVPSRFSGSGSGTDFTLTISSLQPEDVATYYCEQTYRYPFTFGQGTKLEIK
In turn, B3 returned a 50% effective concentration (EC50) of 1.92 nM.

B4: A11BB141: 79E3E3 variant; VH SEQ ID NO: 7, VL SEQ ID NO: 19 (antibody, V domains shown)
VH: QIQLVQSGAEVKKPGSSVKVSCKASGYTFTDYAMNWVRQAPGQGLEWMGWINTQTGKPTYAQKFQGRVTFTLDESTSTTYMELSSLRSEDTAVYYCTRLGTGNTKGFAYWGQGTLVTVSS
VL: DIQITQSPSSLSASVGDRVTITCKSSQSLLYSENNQDYLAWYQQKPGKVPKLLIYGASNRHTGVPSRFSGSGSGTDFTLTISSLQPEDVATYYCEQTYRYPFTFGQGTKLEIK
B4 yielded an EC50 of 4.6 nM.

B5: A11BB138: 79E3E3 variant; VH SEQ ID NO: 12, VL SEQ ID NO: 21 (antibody, V domains shown)
VH: QIQLVQSGSELKKPGASVKISCKASGYTFTDYAMNWVRQAPGQGLEWMGWINTQTGKPTYAQGFTGRFVFSLDTSVSTAYLQISSLKAEDTAVYFCTRLGTGNTKGFAYWGQGTLVTVSS
VL: DIQITQSPSSLSASVGDRVTITCKSSQSLLYSENNQDYLAWYQQKPGKVPKLLIYGASNRHTGVPSRFSGSGSGTDFTLTISSLQPEDVATYYCEQTYRYPFTFGQGTKLEIK
B5 returned an EC50 of 4.63 nM.

B6: A11BB139: 79E3E3 variant; VH SEQ ID NO: 5, VL SEQ ID NO: 22 (antibody, V domains shown)
VH: QIQLVQSGAEVKKPGSSVKVSCKASGYTFTDYAMNWVRQAPGQGLEWMGWINTQTGKPTYAQKFQGRVTFTLDESTSTAYMELSSLRSEDTAVYYCTRLGTGNTKGFAYWGQGTLVTVSS
VL: DIQMTQSPSSLSASVGDRVTITCKSSQSLLYSENNQDYLAWYQQKPGKVPKLLIYGASNRHTGVPSRFSGSGSGTDFTLTISSLQPEDVATYYCEQTYRYPFTFGQGTKLEIK
As for B6, a half-maximal effect (EC50) was put at 1.98 nM. This EC50 is about 2.3-fold lower than that of the molecule before.

B7: A11BB134: 79E3E3 variant; VH SEQ ID NO: 10, VL SEQ ID NO: 22 (antibody, V domains shown)
VH: QIQLVQSGSELKKPGASVKISCKASGYTFTDYAMNWVKQAPGQGLEWMGWINTQTGKPTYAQGFTGRFVFSLDTSVSTAYLQISSLKAEDTAVYFCTRLGTGNTKGFAYWGQGTLVTVSS
VL: DIQMTQSPSSLSASVGDRVTITCKSSQSLLYSENNQDYLAWYQQKPGKVPKLLIYGASNRHTGVPSRFSGSGSGTDFTLTISSLQPEDVATYYCEQTYRYPFTFGQGTKLEIK
As for B7, the EC50 turned out to be 3.49 nM.

The values are drawn from patent US20260184794A1, “ANTIBODIES AGAINST INTEGRIN ALPHA 11 BETA 1 AND USES THEREOF” (Momenta Pharmaceuticals, Inc., priority 2022, published 2026).
